Reference: article PMC13071878 (Journal of Medicinal Chemistry, 2026)
Bridges are numbered along the chain shown (N, C = ends). Where no end group is shown, it is not given here.

How the values were obtained:
[1] = target: T1, human angiotensin-converting enzyme 1 (human, UniProt P12821 30-1256); test: enzyme inhibition assay (fluorogenic substrate); 0.25 nM hACE1, 10 μM Mca-Arg-Pro-Pro-Gly-Phe-Ser-Ala-Phe-Lys(Dnp)-OH, MP 0.03 nM to 100 μM; 10 mM Tris-HCl pH 7.4, 300 mM NaCl, 100 μM ZnCl2, 0.1% BSA, 0.1% DMSO; details: both partners purified
T1 construct: also called hACE1; human ACE1 enzyme

[2] = target: T2, biotinylated extracellular catalytic domain of human angiotensin-converting enzyme 2 (hACE2), produced in … (human, UniProt Q9BYF1 19-615); test: flow cytometry on cells; yeast surface titration: yeast cells displaying the ligand incubated with soluble biotinylated hACE2 (100 pM to 3 uM), at least 1 h, room temperature (25 °C, pH 7.4); binding/display MFI, one-site fit; apparent KD; details: one partner purified
T2 construct: also called biotinylated hACE2

[3] = target: extracellular catalytic domain of human angiotensin-converting enzyme 2 (hACE2), produced in mammalian cells (human, UniProt Q9BYF1 19-615); test: ITC; MicroCal iTC200, 25 °C, 100 mM Tris pH 7.4, 200 mM NaCl; hACE2 in the cell (6 or 7 uM), peptide in the syringe (60 or 70 uM); single-site model; details: both partners purified
[4] = target: T3, human angiotensin-converting enzyme 1 (hACE1) (human, UniProt P12821 30-1256); test: enzyme inhibition assay; 0.25 nM hACE1, 10 uM fluorogenic substrate Mca-Arg-Pro-Pro-Gly-Phe-Ser-Ala-Phe-Lys(Dnp)-OH, dilutions of inhibitor; 10 mM Tris-HCl pH 7.4, 300 mM NaCl, 100 uM ZnCl2, 0.1% BSA, 0.1% DMSO; details: both partners purified
[5] = target: T3, human angiotensin-converting enzyme 1 …; test: enzyme inhibition assay; details: both partners purified

T3 sequence (P12821 30-1256): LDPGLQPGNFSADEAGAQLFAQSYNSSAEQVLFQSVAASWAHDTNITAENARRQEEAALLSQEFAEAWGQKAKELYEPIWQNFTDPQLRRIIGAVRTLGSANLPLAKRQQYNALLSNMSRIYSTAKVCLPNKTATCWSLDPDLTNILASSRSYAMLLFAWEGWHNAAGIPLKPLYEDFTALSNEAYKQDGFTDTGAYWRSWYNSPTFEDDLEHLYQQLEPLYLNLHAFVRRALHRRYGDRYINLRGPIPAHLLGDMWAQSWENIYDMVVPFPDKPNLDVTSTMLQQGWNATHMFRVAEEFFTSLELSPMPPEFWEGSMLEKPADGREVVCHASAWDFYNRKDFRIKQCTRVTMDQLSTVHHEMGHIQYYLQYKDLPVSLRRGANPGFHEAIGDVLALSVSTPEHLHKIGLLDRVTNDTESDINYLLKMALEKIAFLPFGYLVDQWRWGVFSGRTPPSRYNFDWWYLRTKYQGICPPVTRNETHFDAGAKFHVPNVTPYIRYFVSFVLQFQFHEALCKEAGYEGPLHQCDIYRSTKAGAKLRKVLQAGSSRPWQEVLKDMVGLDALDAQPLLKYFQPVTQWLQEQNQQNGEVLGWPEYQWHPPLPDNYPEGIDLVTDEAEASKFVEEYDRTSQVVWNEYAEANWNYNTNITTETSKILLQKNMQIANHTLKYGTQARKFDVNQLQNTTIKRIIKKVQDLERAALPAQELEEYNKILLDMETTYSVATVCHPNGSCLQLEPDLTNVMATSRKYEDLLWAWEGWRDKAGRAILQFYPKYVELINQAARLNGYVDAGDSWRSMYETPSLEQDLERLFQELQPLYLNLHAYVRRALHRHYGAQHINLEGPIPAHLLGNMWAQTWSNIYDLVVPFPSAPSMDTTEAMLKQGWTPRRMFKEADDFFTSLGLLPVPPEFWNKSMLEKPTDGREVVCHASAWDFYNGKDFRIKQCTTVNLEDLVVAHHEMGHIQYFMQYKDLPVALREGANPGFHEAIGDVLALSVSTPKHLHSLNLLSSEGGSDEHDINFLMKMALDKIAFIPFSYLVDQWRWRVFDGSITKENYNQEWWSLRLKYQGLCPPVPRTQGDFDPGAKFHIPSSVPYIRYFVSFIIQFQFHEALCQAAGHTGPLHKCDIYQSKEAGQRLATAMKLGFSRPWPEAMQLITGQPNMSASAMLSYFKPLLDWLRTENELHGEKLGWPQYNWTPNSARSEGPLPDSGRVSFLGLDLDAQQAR
T1 sequence (P12821 30-1256): as above
T2 sequence (Q9BYF1 19-615): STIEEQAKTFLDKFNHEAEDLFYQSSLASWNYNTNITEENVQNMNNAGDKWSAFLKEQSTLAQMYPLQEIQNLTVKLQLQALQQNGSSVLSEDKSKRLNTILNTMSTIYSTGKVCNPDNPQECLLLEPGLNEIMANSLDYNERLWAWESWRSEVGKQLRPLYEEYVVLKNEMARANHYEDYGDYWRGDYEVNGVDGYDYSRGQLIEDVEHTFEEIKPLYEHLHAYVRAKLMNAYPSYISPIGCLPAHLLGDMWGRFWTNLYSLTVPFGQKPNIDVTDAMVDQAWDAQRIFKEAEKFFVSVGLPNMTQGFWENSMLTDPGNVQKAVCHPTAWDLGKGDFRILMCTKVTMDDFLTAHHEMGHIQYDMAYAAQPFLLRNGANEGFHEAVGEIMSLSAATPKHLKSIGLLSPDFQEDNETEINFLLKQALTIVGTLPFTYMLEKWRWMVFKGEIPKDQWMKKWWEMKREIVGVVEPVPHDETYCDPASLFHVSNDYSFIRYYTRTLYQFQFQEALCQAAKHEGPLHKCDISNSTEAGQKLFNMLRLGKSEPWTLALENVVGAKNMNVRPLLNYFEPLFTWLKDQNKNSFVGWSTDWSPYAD
extracellular catalytic domain of human angiotensin-converting enzyme 2 (hACE2), produced in mammalian cells, sequence (Q9BYF1 19-615): as above

Binder | Ki [1] [µM] | IC50 [4] [µM] | further results
ACFFIGFNRWICSG (also called synthetic GR1.1) [GR1.1, synthetic one-ring macrocyclic peptide] | > 100 |  | 
ACEPLGFNRWICSG (also: one-ring macrocycle, closure not given here) [yeast-displayed 'one-ring' macrocyclic peptide GR1.3] |  |  | Kd [2]: 53.8 nM
ACEPLGYNLFLCSG (also: one-ring macrocycle, ring type and places not given here) [synthetic 'one-ring' macrocyclic peptide GR1.4] |  | > 100 | stoichiometry N [3]: 1.4 sites
ACFLRCHRDVKCWLWCSG (also called synthetic GR3.1.2) [GR3.1.2, synthetic isomer 2 of the two-ring macrocyclic peptide GR3.1] | > 100 |  | 
ACFFIGFNRWICSG (also: one-ring macrocycle, ring type and places not given here) [synthetic 'one-ring' macrocyclic peptide GR1.1] |  | > 100 | 
GDYSHCSPLRYYPWWKCTYPDPEGGG (disulfide 6-17 (inferred), source: bought: Selleck Chemicals LLC) [DX600, disulfide-constrained cyclic peptide inhibitor of hACE2] |  |  | IC50 [5]: > 100 µM; Ki [5]: > 100 µM
ACEPLGYNLFLCSG (also called synthetic GR1.4) [GR1.4, synthetic one-ring macrocyclic peptide] | > 100 |  | 
ACFLRCHRDVKCWLWCSG (also: two-ring macrocycle, isomer of GR3.1, ring type and connectivity not given here) [synthetic 'two-ring' macrocyclic peptide GR3.1.2 (isomer of GR3.1)] |  | > 100 | 
